Consider one protein from publication PMC2811748, “H^+-Independent Glutamine Transport in Plant Root Tips” (PLoS ONE, 2010).

Substrate in this series: NC(=O)CC[C@H](N)C(=O)O
Kind of series: cells, lysate or membranes. In kind it is cell-based, Arabidopsis thaliana.

B1: CAT8 (Arabidopsis thaliana) (protein)
chain: MIPASMEEAHQLESRSDDLSQRRSYWRWRKQDFFPEFSFQSFSTYKSALSATCPRLADRLLSRSSDAYELDAARRESENPMRRCLTWWDLLWLSFGSVVGSGVFVITGQEARVGAGPAVVLSYAISGVSALLSVLCYAEFGVEIPVAGGSFSYLRVELGDFIAFIAAGNILLEAMVGAAGLGRSWSSYLASLVKNDSDYFRIKVDSFAKGFDLLDPVAVAVLLVANGIAMTGTKRTSWLNLITSMVTVCIIVFIVVVGFTHSKTSNLVPFFPYGAKGVVQSAAVVYWSYTGFDMVANMAEETEKPSRDIPIGLVGSMSMITVVYCLMALALTMMVKYTEIDANAAYSVAFAQIGMKWAKYLVGICALKGMTTSLLVGSLGQARYTTQIARSHMIPPWFALVHPKTGTPIYATLLVTILSSIISFFTSLEVLSSVFSFATLFIFMLVAVALLVRRYYVKDVTPEAGLLKFLGFLFLIIASSIGVSALWNSGVKGWIAYTVTGVIWFIGTLGLALLPKYRVPKVWGVPLVPWLPSFSIAMNLFLIGSLGYVAFLRFIICTMVMLLYYLFVGLHATYDVAHQPLEEAKFEGER
notes: CAT8 (At1g17120) expressed in Xenopus oocytes and in yeast 22Δ8AA
In general, Km refers to the substrate concentration at which the rate is half of its maximum. As for B1, the Km is 100 µM.
